Reference: IntAct's records for PubMed 19468302

B1: Rac GTPase-activating protein 1 (Homo sapiens), Q9H0H5 (parent)
chain: MDTMMLNVRNLFEQLVRRVEILSEGNEVQFIQLAKDFEDFRKKWQRTDHELGKYKDLLMKAETERSALDVKLKHARNQVDVEIKRRQRAEADCEKLERQIQLIREMLMCDTSGSIQLSEEQKSALAFLNRGQPSSSNAGNKRLSTIDESGSILSDISFDKTDESLDWDSSLVKTFKLKKREKRRSTSRQFVDGPPGPVKKTRSIGSAVDQGNESIVAKTTVTVPNDGGPIEAVSTIETVPYWTRSRRKTGTLQPWNSDSTLNSRQLEPRTETDSVGTPQSNGGMRLHDFVSKTVIKPESCVPCGKRIKFGKLSLKCRDCRVVSHPECRDRCPLPCIPTLIGTPVKIGEGMLADFVSQTSPMIPSIVVHCVNEIEQRGLTETGLYRISGCDRTVKELKEKFLRVKTVPLLSKVDDIHAICSLLKDFLRNLKEPLLTFRLNRAFMEAAEITDEDNSIAAMYQAVGELPQANRDTLAFLMIHLQRVAQSPHTKMDVANLAKVFGPTIVAHAVPNPDPVTMLQDIKRQPKVVERLLSLPLEYWSQFMMVEQENIDPLHVIENSNAFSTPQTPDIKVSLLGPVTTPEHQLLKTPSSSSLSQRVRSTLTKNTPRFGSKSKSATNLGRQGNFFASPMLK
B2: Rac GTPase-activating protein 1 (Homo sapiens), Q9H0H5 (parent)
chain: B1 chain
partner: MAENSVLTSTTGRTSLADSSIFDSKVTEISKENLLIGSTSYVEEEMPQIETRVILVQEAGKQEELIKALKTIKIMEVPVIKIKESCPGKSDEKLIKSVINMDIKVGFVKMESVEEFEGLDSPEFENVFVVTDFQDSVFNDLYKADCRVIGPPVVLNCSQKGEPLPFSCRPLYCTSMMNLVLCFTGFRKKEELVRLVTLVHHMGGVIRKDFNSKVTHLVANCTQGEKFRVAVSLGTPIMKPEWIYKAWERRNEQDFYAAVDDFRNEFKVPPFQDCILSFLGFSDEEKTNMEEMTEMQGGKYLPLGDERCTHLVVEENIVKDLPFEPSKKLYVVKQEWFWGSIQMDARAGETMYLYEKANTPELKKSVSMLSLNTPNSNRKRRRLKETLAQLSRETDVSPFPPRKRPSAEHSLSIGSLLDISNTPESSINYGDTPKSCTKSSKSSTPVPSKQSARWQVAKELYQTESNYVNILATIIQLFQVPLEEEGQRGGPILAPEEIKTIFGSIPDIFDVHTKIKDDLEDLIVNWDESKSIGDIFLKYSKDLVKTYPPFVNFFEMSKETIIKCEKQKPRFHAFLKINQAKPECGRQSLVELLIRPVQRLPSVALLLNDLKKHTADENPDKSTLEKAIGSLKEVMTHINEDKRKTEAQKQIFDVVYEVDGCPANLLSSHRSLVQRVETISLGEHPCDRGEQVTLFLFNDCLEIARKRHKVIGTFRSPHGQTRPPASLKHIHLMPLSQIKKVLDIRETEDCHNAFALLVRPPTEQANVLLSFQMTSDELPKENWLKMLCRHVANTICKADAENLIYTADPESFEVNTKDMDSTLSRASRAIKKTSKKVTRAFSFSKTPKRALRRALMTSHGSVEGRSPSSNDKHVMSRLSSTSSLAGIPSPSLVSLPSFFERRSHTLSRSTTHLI

Variants of: B1
Conditions: with plk1_human PLK1, P53350
plk1_human PLK1, P53350, sequence (P53350 whole entry): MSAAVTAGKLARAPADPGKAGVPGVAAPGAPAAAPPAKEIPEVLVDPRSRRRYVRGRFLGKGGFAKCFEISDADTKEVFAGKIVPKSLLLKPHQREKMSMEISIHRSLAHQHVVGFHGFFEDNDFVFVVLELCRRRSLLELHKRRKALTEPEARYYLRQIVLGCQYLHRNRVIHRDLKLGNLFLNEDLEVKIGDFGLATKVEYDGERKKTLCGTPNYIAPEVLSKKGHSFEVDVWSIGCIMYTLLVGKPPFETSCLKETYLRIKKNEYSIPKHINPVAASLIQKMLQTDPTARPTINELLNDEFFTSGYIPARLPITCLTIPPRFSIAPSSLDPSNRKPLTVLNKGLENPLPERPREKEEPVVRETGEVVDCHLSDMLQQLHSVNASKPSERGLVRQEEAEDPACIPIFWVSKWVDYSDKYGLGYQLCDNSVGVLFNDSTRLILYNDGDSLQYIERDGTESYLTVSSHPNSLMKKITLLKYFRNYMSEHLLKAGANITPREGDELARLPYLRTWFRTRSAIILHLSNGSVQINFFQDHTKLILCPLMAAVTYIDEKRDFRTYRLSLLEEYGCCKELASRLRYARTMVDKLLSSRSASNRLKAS

effect of a mutation on the interaction	Variant
decreasing interaction strength	S157A;S164A;S170A;S214A;T260A

Variants of: B2
Conditions: with ect2_human ECT2, Q9H8V3

effect of a mutation on the interaction	Variant
decreasing interaction	S157A
disrupting interaction	S157A;S164A;S170A
decreasing interaction strength	S157A;S164A;S170A;S214A;T260A
